# Target: CYK-4/MgcRacGAP (UniProt Q9H0H5)
# Assay: myc IP, anti-CYK-4 Western blot
# Details: reference: E6 wild type; sites T342
# Chain of UniProt Q9H0H5 (Q9H0H5 whole entry, looked up): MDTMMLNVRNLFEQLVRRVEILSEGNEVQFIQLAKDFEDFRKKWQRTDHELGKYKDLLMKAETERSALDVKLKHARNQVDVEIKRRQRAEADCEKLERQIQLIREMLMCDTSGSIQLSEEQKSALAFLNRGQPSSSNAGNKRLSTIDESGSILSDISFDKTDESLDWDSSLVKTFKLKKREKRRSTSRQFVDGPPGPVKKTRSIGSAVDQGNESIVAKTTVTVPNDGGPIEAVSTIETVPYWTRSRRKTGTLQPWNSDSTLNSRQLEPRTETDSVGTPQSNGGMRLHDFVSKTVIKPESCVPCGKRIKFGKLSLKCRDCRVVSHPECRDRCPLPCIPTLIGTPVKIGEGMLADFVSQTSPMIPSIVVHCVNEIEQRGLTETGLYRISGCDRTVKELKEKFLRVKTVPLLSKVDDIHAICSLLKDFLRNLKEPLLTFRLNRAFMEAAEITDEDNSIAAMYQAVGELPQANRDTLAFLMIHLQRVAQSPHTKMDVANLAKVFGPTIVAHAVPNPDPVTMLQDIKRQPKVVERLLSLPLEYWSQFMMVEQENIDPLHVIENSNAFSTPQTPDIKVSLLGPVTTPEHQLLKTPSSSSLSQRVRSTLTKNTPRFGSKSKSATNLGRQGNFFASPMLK
substance,measurement,value
"ECT2 E6, 1-352 (from UniProt Q9H8V3-4) E6* (T342A)",binding against the reference,stronger
